Measurements reported in patent publication US20240201167A1 (ALBERT EINSTEIN COLLEGE OF MEDICINE, published 2024).
Where “and” joins values, the source holds several entries; their conditions need not be identical. Equal values may be shown once.

T1: SorCS1 expressed on cells (UniProt Q8WY21 34-1168, limits assumed)
T1 construct: whole, on cells
T1 sequence (looked up): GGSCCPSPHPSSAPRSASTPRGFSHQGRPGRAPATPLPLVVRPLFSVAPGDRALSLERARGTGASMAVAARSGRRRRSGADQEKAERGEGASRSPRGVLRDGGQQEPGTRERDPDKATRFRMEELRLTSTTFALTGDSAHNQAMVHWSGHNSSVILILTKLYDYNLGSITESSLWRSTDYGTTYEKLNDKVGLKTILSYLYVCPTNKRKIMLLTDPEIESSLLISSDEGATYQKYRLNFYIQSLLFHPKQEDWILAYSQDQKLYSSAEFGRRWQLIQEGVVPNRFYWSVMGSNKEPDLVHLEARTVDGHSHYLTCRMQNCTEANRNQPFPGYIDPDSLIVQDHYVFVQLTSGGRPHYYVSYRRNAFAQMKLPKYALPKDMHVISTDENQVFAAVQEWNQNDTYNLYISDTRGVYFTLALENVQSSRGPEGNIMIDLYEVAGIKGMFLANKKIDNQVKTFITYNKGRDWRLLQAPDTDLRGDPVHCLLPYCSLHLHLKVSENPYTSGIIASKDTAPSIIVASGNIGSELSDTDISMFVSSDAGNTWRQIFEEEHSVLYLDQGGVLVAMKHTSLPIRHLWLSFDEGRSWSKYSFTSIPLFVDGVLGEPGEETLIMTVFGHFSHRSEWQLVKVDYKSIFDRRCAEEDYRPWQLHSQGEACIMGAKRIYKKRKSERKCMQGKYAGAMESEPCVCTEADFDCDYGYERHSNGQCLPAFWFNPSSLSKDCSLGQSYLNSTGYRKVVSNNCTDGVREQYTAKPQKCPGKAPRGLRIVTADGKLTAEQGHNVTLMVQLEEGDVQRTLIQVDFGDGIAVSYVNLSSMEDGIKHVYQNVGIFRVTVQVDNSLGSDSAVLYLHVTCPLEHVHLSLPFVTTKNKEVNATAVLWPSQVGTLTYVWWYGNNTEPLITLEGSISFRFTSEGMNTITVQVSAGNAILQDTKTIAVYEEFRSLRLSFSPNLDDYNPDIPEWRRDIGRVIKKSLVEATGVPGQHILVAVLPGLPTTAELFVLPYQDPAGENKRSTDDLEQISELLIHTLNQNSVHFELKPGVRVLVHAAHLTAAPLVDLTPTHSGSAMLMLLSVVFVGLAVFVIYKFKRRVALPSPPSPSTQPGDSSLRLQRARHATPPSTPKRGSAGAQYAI

T2: SorCS3 expressed on cells (UniProt Q9UPU3 134-1222, limits assumed)
T2 construct: whole, on cells
T2 sequence (looked up): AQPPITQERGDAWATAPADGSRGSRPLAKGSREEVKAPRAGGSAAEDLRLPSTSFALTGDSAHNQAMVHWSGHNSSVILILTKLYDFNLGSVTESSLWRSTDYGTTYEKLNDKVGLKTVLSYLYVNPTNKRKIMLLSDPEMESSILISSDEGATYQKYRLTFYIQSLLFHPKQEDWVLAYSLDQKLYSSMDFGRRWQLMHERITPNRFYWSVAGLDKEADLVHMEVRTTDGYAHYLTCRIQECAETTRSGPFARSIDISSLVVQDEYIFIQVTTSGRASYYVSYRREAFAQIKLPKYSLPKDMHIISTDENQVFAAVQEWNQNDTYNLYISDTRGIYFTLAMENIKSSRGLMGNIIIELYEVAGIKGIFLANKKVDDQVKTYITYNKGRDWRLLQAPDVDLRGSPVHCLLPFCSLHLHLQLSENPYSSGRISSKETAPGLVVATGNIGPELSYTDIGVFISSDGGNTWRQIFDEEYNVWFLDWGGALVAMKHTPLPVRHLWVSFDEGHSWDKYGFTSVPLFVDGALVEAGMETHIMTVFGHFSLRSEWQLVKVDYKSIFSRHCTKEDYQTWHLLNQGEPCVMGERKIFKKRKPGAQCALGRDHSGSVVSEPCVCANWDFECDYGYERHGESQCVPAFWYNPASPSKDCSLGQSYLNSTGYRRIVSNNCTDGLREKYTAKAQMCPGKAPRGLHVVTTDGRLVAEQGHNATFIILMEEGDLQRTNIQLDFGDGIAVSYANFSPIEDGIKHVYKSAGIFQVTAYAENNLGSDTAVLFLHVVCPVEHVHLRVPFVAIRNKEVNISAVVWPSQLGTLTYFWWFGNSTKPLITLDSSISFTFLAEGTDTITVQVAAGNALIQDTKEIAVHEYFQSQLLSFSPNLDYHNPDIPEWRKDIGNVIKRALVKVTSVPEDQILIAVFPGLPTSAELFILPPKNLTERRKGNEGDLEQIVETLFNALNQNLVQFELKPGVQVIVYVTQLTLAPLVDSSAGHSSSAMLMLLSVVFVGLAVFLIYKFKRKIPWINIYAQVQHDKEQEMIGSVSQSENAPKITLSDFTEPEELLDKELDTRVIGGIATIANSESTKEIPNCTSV

T3: TNFR2 expressed on cells (human, UniProt P20333 23-461)
T3 construct: whole, on cells
T3 sequence (looked up): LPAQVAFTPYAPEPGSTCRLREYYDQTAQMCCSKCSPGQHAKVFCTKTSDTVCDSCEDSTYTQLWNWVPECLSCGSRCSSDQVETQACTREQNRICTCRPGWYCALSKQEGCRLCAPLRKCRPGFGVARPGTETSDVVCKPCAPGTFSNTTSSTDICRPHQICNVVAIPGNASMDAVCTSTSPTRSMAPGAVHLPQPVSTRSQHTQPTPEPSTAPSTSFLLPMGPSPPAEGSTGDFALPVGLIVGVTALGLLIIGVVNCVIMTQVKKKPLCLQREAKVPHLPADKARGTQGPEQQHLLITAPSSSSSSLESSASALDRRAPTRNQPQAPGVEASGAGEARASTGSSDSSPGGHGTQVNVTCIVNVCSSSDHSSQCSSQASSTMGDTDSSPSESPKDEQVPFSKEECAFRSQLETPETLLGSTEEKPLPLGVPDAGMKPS

T4: FAS expressed on cells (human, UniProt P25445 26-335)
T4 construct: whole, on cells
T4 sequence (looked up): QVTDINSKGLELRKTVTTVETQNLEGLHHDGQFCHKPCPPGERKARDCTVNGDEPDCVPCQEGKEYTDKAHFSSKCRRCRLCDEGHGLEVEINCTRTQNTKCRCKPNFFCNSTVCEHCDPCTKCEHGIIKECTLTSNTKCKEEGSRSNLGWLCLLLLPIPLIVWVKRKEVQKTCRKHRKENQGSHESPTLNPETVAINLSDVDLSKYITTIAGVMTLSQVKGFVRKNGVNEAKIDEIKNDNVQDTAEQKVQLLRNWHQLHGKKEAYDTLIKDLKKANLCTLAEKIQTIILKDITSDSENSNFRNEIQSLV

T5: human p75 neurotrophin receptor, full length, expressed on HEK 293 cells (Homo sapiens, UniProt P08138 29-427)
T5 construct: Full-length human p75 with a cytosolic fluorescent tag (GFP); also called p75NTR; NGFR
T5 sequence: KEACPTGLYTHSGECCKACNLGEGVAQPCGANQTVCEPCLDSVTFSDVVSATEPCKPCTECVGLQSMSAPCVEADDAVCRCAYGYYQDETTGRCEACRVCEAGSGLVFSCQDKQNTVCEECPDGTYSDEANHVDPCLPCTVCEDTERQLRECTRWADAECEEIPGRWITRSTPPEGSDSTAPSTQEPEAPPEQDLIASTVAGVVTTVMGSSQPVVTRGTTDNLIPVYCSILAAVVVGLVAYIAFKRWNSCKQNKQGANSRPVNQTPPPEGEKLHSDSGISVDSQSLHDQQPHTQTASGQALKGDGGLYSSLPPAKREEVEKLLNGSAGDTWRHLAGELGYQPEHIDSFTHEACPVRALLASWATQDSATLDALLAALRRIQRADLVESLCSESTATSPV

B1: human B7-1 (CD80), full length, expressed on HEK 293 cells (ligand)
chain: VIHVTYEVKEVATLSCGHNVSVEELAQTRIYWQKEKKMVLTMMSGDMNIWPEYKNRTIFDITNNLSIVILALRPSDEGTYECVVLKYEKDAFKREHLAEVTLSVKADFPTPSISDFEIPTSNIRRIICSTSGGFPEPHLSWLENGEELNAINTTVSQDPETELYAVSSKLDFNMTTNHSFMCLIKYGHLRVNQTFNWNTTKQEHFPDNLLPSWAITLISVNGIFVICCLTYCFAPRCRERRRNERL
notes: also called hB7-1; B7-1-mCherry
B2: B7-1N82E-Fc (Fc fusion)
chain: VIHVTYEVKEVATLSCGHNVSVEELAQTRIYWQKEKKMVLTMMSGDMEIWPEYKNRTIFDITNNLSIVILALRPSDEGTYECVVLKYEKDAFKREHLAEVTLSVKADFPTPSISDFEIPTSNIRRIICSTSGGFPEPHLSWLENGEELNAINTTVSQDPETELYAVSSKLDFNMTTNHSFMCLIKYGHLRVNQTFNWNT
notes: also called recombinant mutant B7-1 N82E; B7-1 N82E Fc fusion protein; not shown: C-terminal deca-His-tagged Fc domain (mIgG2a-His10 or hIgG1-His10)

Key:
[1] = target: T6, Sortilin expressed on cells (UniProt Q99523 78-831, limits assumed); test: cell-cell binding
T6 construct: whole, on cells

[2] = target: T1, SorCS1 expressed on cells; test: cell-cell binding
[3] = target: T7, SorCS2 expressed on cells (UniProt Q96PQ0 51-1159, limits assumed); test: cell-cell binding
T7 construct: whole, on cells

[4] = target: T2, SorCS3 expressed on cells; test: cell-cell binding
TNFR2 expressed on cells = target: T3, TNFR2 expressed on cells; test: cell-cell screen, flow cytometry
Experimental: (§1) As illustrated, cells were transfected with expression cassettes expressing labeled receptors or labeled ligands, receptor-expressing cells were mixed with ligand-expressing cells and cell-to-cell binding was monitored by detecting the labels associated with the receptor and the ligand. […] Binding was detected using an anti-mIgG2A ab and flow cytometry. The binding curves were fit and the Bmax, EC50, and hill coefficient were calculated using the equation Y=Bmax*Xh/(Kdh+Xh).

FAS expressed on cells = target: T4, FAS expressed on cells; test: cell-cell screen, flow cytometry
Experimental: as §1

[5] = target: T5, human p75 neurotrophin receptor, full …; test: Fc fusion titrated on transfected cells, flow cytometry
Experimental: (§2) Three days post transfection cells were counted and diluted to 1×10⁶ cells/mL in 1×PBS 0.2% BSA, pH 7.4. Premixed solutions containing a final concentration of 1 μM Fc-fusion protein and 1.5 μM Alexa 647 goat anti-mouse secondary antibody (ThermoFisher, A-21235) were incubated on ice for 30 min. Subsequently, increasing amounts of the premixed solution was added to wells of a 96-well plate and the volume adjusted to 50 μL with 1×PBS and 100 μL of diluted cells (100,000 cells total) added to the wells. Binding was performed at room temperature for 1 hour, the cells washed 2× with 1×PBS 0.2% BSA by centrifugation and subsequently analyzed by Flow Cytometry on a SONY Spectral Analyzer (SA 3800). Gated live cells were sub-gated for GFP, and GFP-positive cells sub-gated for Alexa-647.

[6] = target: T8, human CD28 expressed on HEK 293 cells (human, UniProt P10747 19-220); test: Fc fusion titrated on CD28-expressing cells, flow cytometry
T8 construct: whole, on cells; also called CD28-GFP
Experimental: as §2

[7] = target: T9, human CTLA-4 expressed on HEK 293 cells (human, UniProt P16410 36-223); test: Fc fusion titrated on CTLA-4-expressing cells, flow cytometry
T9 construct: whole, on cells; also called CTLA-4-GFP
Experimental: as §2

T9 sequence (P16410 36-223): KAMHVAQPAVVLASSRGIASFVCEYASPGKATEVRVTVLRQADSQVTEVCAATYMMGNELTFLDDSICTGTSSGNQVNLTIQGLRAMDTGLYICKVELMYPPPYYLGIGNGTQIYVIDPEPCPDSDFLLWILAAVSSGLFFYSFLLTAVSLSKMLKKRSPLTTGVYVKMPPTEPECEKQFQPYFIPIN
T7 sequence (Q96PQ0 51-1159 limits assumed): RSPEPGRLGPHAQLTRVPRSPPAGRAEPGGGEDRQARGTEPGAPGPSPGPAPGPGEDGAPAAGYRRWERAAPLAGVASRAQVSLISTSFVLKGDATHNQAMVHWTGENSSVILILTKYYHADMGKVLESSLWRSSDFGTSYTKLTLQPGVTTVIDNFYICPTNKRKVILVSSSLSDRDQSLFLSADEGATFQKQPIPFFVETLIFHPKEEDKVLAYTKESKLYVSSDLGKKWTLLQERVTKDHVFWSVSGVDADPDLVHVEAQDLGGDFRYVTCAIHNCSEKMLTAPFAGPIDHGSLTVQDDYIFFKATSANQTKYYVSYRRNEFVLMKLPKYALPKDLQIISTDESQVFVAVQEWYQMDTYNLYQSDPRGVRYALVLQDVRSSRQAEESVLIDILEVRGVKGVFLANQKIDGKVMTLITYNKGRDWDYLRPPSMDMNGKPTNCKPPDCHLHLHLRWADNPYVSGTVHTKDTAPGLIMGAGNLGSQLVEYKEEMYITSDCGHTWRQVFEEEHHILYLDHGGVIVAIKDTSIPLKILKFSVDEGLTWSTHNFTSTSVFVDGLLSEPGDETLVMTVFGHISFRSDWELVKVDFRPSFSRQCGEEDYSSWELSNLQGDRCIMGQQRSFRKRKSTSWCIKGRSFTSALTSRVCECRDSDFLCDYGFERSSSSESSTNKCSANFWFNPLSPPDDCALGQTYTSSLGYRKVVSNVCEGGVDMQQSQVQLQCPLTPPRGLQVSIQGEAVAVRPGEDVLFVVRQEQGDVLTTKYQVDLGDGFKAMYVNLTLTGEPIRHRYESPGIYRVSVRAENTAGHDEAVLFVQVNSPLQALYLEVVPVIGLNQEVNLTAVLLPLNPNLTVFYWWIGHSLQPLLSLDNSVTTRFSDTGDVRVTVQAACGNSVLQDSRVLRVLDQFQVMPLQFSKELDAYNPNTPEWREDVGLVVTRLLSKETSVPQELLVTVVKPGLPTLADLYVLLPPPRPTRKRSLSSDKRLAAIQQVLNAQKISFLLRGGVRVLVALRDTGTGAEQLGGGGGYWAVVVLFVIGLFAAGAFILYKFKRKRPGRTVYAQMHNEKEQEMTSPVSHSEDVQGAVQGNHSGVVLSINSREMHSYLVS

| Binder | binding result [1] | binding result [2] | binding result [3] | binding result [4] | binding result (TNFR2 expressed on cells) | binding result (FAS expressed on cells) | binding result [5] | EC50 [6] | EC50 [7] |
| --- | --- | --- | --- | --- | --- | --- | --- | --- | --- |
| B1 | no binding | no binding | no binding | no binding | no binding | no binding |  |  |  |
| B2 |  |  |  |  |  |  | no binding | ~9 nM and ~10 nM | ~9 nM and ~10 nM |
